These results are taken from patent US20200207857A1.

By Kd is commonly meant the free concentration of one partner at which half of the binding sites on the other are occupied at equilibrium, for simple one-to-one binding. One may read the EC50 (read off the curve) as the concentration needed to bring the measured effect to its halfway point.

Substitutions are numbered along the chain they refer to.

The chains are these.
B1: Anti-CLDN 18.2-9A1 (antibody, V domains shown)
VH: VQLQQSGAELVRPGTSVKVSCKASRYAFTNYLIEWVKQRPGQGLEWIGMINPGSGGTHYNEKFKVKATLTADKSSSTAYMQLSSLTSDDSAVYFCARGGFGNSFAYWGQGTLVTVSA
VL: DILLTQSPLSLTVTAGEKVTMSCKSSQSLLNGGNLKNYLTWYQQKPGQPPKLLTYWASTRESGVPVRFTGSGSGTDFTLTISSVQAEDLAVYYCQNGYFYPYTFGGGTKLEIK
B2: Anti-CLDN 18.2-5C9o (humanized antibody h5C9o) (antibody, V domains shown)
VH: EVQLVESGGGLVQPGGSLRLSCAVSGYTFSMNWVRQAPGKGLEWVAWINMYTGEPTYADDFKGRFTISRDDSKNTLYLQMNSLRAEDTAVYYCARLYNGNSLDYWGQGTLVTVSS
VL: DIQMTQSPSSLSASVGDRVTITCKSSQSLLNSGNQKSYLTWYQQKPGKAPKLLIYWASTLESGVPSRFSGSGSGTDYTLTISSLQPEDFATYYCQNAYSFPFTFGQGTKVEIK
B3: h5C9oh (antibody, V domains shown)
VH: B2 VH with N98R
VL: B2 VL with S99E
B4: h5C9oj (antibody, V domains shown)
VH: B2 VH with S101A
VL: B2 VL with S99F
B5: Anti-CLDN 18.2-5C9ob (humanized antibody h5C9ob) (antibody, human IgG1, V domains shown)
VH: B2 VH
VL: B2 VL with S99F
B6: h5C9oi (antibody, V domains shown)
VH: B2 VH with L96M
VL: B2 VL with A97S
B7: Anti-CLDN 18.2-15G11 (antibody, V domains shown)
VH: VQLQESGGGLVQPGGSRKLSCAASGFSFSSFGMHWVRQAPEKGLEWVAFISSGSSPIYYADTVKGRFTVSRDNPKNTLFLQMTSLRSEDTAMYFCARNYYGNAMDYWGQGSSVTVSS
VL: DIMMTQSPLSLTVTAGEKVTMNCKSSQSLLNGGNQKNYLAWYQQKPGQPPKLLIYWASTRESGVPARFTGSGSGTDFTLTINTVQAEDLAVYYCQNDYFYPLTFGTGTKLELK
B8: Anti-CLDN 18.2-5C9 (antibody, V domains shown)
VH: VKLQESGPELKKPGETVKISCKASGYTFTNYGMNWVKQAPGKGLKWMGWINMYTGEPTYADDFKGRFAFSLETSASTAYLQINNLKNEDTATYFCSRLYNGNSLDYWGQGTSLTVSS
VL: DILLTQSPLSLTVTAGEKVTMSCKSSQSLLNSGNQKSYLTWYQQKPGQPPKLLLYWASTRESGVPARFTGSGSGTDFSLTISSVQTEDLAVYYCQNAYSFPFTFGSGTKLEIN
B9: Anti-CLDN 18.2-7H1 (antibody, V domains shown)
VL: DIVLTQSPAILSVSPGEKVTMTCRASSSVSYMHWYQQKPGSSPKPWIYGTSNLASGVPARFSGSGSGTSYSLTISRVEAEDAATYYCQQWSSNPLTFGTGTKLELK
V domain: KVQLQESGGGSVQPGGSLKLSCAASGFTFSSYSMSWVRQTPEKRLEWVAYISNLGGATYYPDTVKGRFTVSRDNARNSLYLQMTSLKSDDTAMYYCTRHNYGYDGFADWGQGTLATVSA
B10: Anti-CLDN 18.2-5H1 (antibody, V domains shown)
VH: B1 VH with Q5E, R25G, V36I, H58K, V65G, T68S, S74T
VL: B1 VL with L3M, L4M, S22T, G32S, V66T, G74A, G97A
B11: h5C9oam (antibody, human IgG1, kappa, V domains shown)
VH: B2 VH with Y97A, N98R, L102I
VL: DIQMTQSPSSLSASVGDRVTITCKSSQSLLNSGNQKSYLTWYQQKPGKAPKLLIYWASTLESGVPSRFSGSGSGTDYTLTISSLQPEDFATYYCQNAYFFPFTFGQGTKVEIKR
B12: h5C9oal (antibody, human IgG1, kappa, V domains shown)
VH: B2 VH with Y97A, N98R, L102M
VL: B11 VL with F99Y
B13: chimeric anti-CLDN 18.2 antibody ch5C9 (antibody, human IgG1, kappa, V domains shown)
VH: EVKLQESGPELKKPGETVKISCKASGYTFTNYGMNWVKQAPGKGLKWMGWINMYTGEPTYADDFKGRFAFSLETSASTAYLQINNLKNEDTATYFCSRLYNGNSLDYWGQGTSLTVSS
VL: DILLTQSPLSLTVTAGEKVTMSCKSSQSLLNSGNQKSYLTWYQQKPGQPPKLLLYWASTRESGVPARFTGSGSGTDFSLTISSVQTEDLAVYYCQNAYSFPFTFGSGTKLEINR
B14: chimeric anti-CLDN 18.2 antibody ch15G11 (antibody, V domains shown)
VH: EVQLQESGGGLVQPGGSRKLSCAASGFSFSSFGMHWVRQAPEKGLEWVAFISSGSSPIYYADTVKGRFTVSRDNPKNTLFLQMTSLRSEDTAMYFCARNYYGNAMDYWGQGSSVTVSS
VL: DIMMTQSPLSLTVTAGEKVTMNCKSSQSLLNGGNQKNYLAWYQQKPGQPPKLLIYWASTRESGVPARFTGSGSGTDFTLTINTVQAEDLAVYYCQNDYFYPLTFGTGTKLELKR
B15: chimeric anti-CLDN 18.2 antibody ch9A1 (antibody, human IgG1, kappa, V domains shown)
VH: EVQLQQSGAELVRPGTSVKVSCKASRYAFTNYLIEWVKQRPGQGLEWIGMINPGSGGTHYNEKFKVKATLTADKSSSTAYMQLSSLTSDDSAVYFCARGGFGNSFAYWGQGTLVTVSA
VL: DILLTQSPLSLTVTAGEKVTMSCKSSQSLLNGGNLKNYLTWYQQKPGQPPKLLTYWASTRESGVPVRFTGSGSGTDFTLTISSVQAEDLAVYYCQNGYFYPYTFGGGTKLEIKR
B16: Anti-CLDN 18.2-5C9oae (humanized antibody h5C9oae) (antibody, human IgG1, V domains shown)
VH: B2 VH with N98R
VL: B2 VL with S99F
B17: h5C9o Fc mutation (antibody, V domains shown)
VH: B2 VH
VL: B11 VL with F99S
B18: humanized anti-Claudin 18.2 antibody h5C9oao (antibody, human IgG1, kappa, V domains shown)
VH: B2 VH with Y97A, N98R, L102M
VL: B11 VL
B19: humanized anti-Claudin 18.2 antibody h5C9oan (antibody, human IgG1, kappa, V domains shown)
VH: B2 VH with L96S, Y97S, N98R, S101G, L102F
VL: B11 VL
B20: h5C9oah (antibody, V domains shown)
VH: B2 VH with L96S, Y97S, N98R, S101G, L102F
VL: B2 VL
B21: Anti-CLDN 18.2-5C9oai (humanized antibody h5C9oai) (antibody, human IgG1, V domains shown)
VH: B2 VH with Y97A, N98R, L102M
VL: B2 VL
B22: Anti-CLDN 18.2-5C9oag (humanized antibody h5C9oag) (antibody, human IgG1, V domains shown)
VH: B2 VH with Y97A, N98R, L102I
VL: B2 VL

One assay concerns the target human Claudin 18.1 (CLDN 18.1) expressed on HEK293 cells (human) (UniProt P56856). Put plainly: flow cytometry, 293T-CLDN18.1 cells, FL1-A histogram, gate P1; untransfected 293T: M1 0.0%.
In turn, B1 showed a % of cells in gate M1 of 1.3%.

For the next assay, the target named is Recombinant protein Claudin 18.2. Put plainly: ELISA, recombinant Claudin 18.2 coated at 4.5 ug/mL (Example 67), OD450; Kd box under the graph without column head (the only rising curve is h5C9o_CLN18.2), no unit in the box, unit from the x axis log[antibody] nM.
Chain of Recombinant protein Claudin 18.2 (chain, as listed by the source limits assumed, form in doubt): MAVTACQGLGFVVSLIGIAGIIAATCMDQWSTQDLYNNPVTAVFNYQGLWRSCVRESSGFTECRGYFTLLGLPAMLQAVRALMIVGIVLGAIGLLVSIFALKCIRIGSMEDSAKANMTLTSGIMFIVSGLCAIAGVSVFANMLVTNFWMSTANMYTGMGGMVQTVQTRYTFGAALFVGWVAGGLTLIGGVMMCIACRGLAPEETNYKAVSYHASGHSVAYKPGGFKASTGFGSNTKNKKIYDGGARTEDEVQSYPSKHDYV
As for B2, the Kd stood at 0.0873 nM.

For another assay the target is unchanged. Put plainly: ELISA on plate-coated recombinant Claudin 18.2, OD450; Kd table under the graph, no unit in the table, unit from the x axis log[antibody] nM. (An ELISA detects its analyte on a solid surface through an enzyme-linked reagent.)
As to B2, the Kd was found to be 0.0892 nM.

As to B3, the Kd amounted to 0.0802 nM. For B4, the Kd is 0.0777 nM. In the case of B5, the Kd worked out at 0.0863 nM. Take B6: the Kd worked out at 0.0868 nM.

The target of another assay is human Claudin 18.1 (CLDN 18.1) expressed on HEK293 cells (human) (UniProt P56856). Put plainly: flow cytometry, 293T-CLDN18.1 cells, FL1-A histogram, gate P1; untransfected 293T: M1 0.1%. In general terms: A flow cytometer gives signals particle by particle.
Chain of human Claudin 18.1 (CLDN 18.1) expressed on HEK293 cells (human) (P56856 whole entry): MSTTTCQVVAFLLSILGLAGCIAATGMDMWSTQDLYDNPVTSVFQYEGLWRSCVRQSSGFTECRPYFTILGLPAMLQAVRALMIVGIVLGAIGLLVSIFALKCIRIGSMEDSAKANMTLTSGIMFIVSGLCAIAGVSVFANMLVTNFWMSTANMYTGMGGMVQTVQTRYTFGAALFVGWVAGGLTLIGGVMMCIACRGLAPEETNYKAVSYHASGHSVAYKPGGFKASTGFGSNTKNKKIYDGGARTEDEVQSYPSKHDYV
In turn, B7 gave a % of cells in gate M1 of 0.7%. With B8, the % of cells in gate M1 stood at 0.7%.

Another assay concerns the target Recombinant protein Claudin 18.2. Put plainly: binding study 'as in Example 1'; method not named (ELISA on recombinant Claudin 18.2 assumed).
In the case of B9, the Kd turned out to be 0.267 nM. On the same count and under the same terms, under B10 stands 0.32 nM.

The next assay has the same target. Put plainly: ELISA-based assay on Claudin 18.2, y axis RLU; Kd table under the graph, no unit in the table, unit from the x axis log[antibody] nM.
As to B11, the Kd was 0.172 nM.

In the case of B5, the Kd was found to be 0.16 nM. Same read-out and setting: the figure for B12 is 0.198 nM.

A further assay shares this target. Put plainly: ELISA, recombinant Claudin 18.2 coated at 4.5 ug/mL (Example 67), OD370; Kd table under the graph, no unit in the table, unit from the x axis log[antibody] nM.
Turning to B13, the Kd came out at 0.0988 nM. B14: the Kd was 0.0939 nM. As to B15, the Kd was determined as 0.101 nM.

Another assay has the same target. Put plainly: ELISA on plate-coated recombinant Claudin 18.2, OD450; Kd table under the graph, no unit in the table, unit from the x axis log[antibody] nM. This is another data set of the same source.
Regarding B2, the equilibrium dissociation constant (Kd) turned out to be 0.128 nM. The same measure, in the same setting: under B16 stands 0.14 nM; under B17, 0.114 nM.

As for B18, the Kd turned out to be 0.134 nM. As to B5, the Kd was 0.129 nM.

The target is the same in the next assay. Put plainly: ELISA on plate-coated recombinant Claudin 18.2, OD370; Kd table under the graph, no unit in the table, unit from the x axis log[antibody] nM.
Regarding B7, the Kd worked out at 0.0662 nM. With B1, the dissociation constant (Kd) worked out at 0.0536 nM. Turning to B8, the Kd turned out to be 0.0699 nM.

Another assay has the same target. Put plainly: ELISA-based assay on Claudin 18.2, y axis RLU; Kd table under the graph, no unit in the table, unit from the x axis log[antibody] nM. The source holds these as a separate data set.
On to B2, for which the Kd is 0.14 nM. As for B16, the Kd stood at 0.109 nM.

For the molecule B17, the Kd worked out at 0.162 nM.

As to B18, the Kd is 0.102 nM. As to B5, the Kd was determined as 0.13 nM. For B19, the dissociation constant Kd was 0.12 nM.

For a further assay the target is unchanged. Put plainly: ELISA as in Example 1, recombinant Claudin 18.2 coated on the plate, OD450, linear axis in ng/ml.
Consider B7, for which the EC50 (read off the curve) was 0.06 µg/mL. Turning to B1, the concentration giving a half-maximal response (EC50 (read off the curve)) was 0.06 µg/mL. Turning to B8, the EC50 (read off the curve) was found to be 0.05 µg/mL.

The target is the same in a further assay. Put plainly: ELISA-based assay on Claudin 18.2, y axis RLU; Kd table under the graph, no unit in the table, unit from the x axis log[antibody] nM. This is another data set of the same source.
As to B20, the Kd turned out to be 0.236 nM.

For the molecule B3, the dissociation constant (Kd) amounted to 0.201 nM.

As to B16, the Kd was 0.183 nM. On to B4, for which the dissociation constant (Kd) came out at 0.276 nM. Regarding B5, the dissociation constant Kd worked out at 0.213 nM.

With B6, the Kd turned out to be 0.316 nM.

In the case of B21, the Kd came out at 0.196 nM. Take B22: the Kd was found to be 0.196 nM.
